Test results reported in article PMC5655127.

Target: KpBest^ΔC11 L177T (Klebsiella pneumoniae)
Test: crystal structure; KpBest^ΔC11 L177T, sitting-drop vapor diffusion at 20°C, 0.05 M zinc acetate, 6% ethylene glycol, 0.1 M sodium cacodylate pH 6.0, 6.6% PEG 8000; solved to 3.1 Å by molecular replacement with 4WD8

KpBest^ΔC11 L177T (natural protein)
stoichiometry N: 5
